The source of these data is the supplement of paper PMC9112550, “Optimization of the antimicrobial peptide Bac7 by deep mutational scanning” (BMC Biology, 2022).

The test system of this data set is Escherichia coli TOP10. Briefly: shrunken log2 fold change of peptide-encoding DNA abundance (4.5 h post-induction vs induction); higher = less antimicrobial activity (less host growth inhibition). As to conditions: time post-induction: 4.5 h; library: site-saturation at positions 5, 18, 19, 20.
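Note: peptides expressed intracellularly from a pBAD plasmid library in pooled LB shake-flask culture, induced with 0.3% L-arabinose, DNA abundance read by NGS, three biological replicates, DESeq2 with apeglm shrinkage.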

Consider RRIRARPPRLPRPRPRPYTNPRP, for which the “shrunken log2 fold change” value was -1.06.

For the sequence RRIRKRPPRLPRPRPRPRVIPRP, the “shrunken log2 fold change” value worked out at 0.0832.

Regarding RRIRKRPPRLPRPRPRPLIDPRP, the “shrunken log2 fold change” value worked out at 0.449.

Consider RRIRYRPPRLPRPRPRPTLIPRP, for which the “shrunken log2 fold change” value was -0.743.

Regarding RRIRHRPPRLPRPRPRPWCAPRP, the “shrunken log2 fold change” value is -0.145.

In the case of RRIRDRPPRLPRPRPRPALWPRP, the “shrunken log2 fold change” value came out at 1.05.

Take RRIRERPPRLPRPRPRPHYIPRP: the “shrunken log2 fold change” value is -0.133.

On to RRIRRRPPRLPRPRPRPVTYPRP, for which the “shrunken log2 fold change” value was -0.0642.

Consider RRIRYRPPRLPRPRPRPHGPPRP, for which the “shrunken log2 fold change” value was -0.239.

Turning to RRIRKRPPRLPRPRPRPTWEPRP, the “shrunken log2 fold change” value is -0.0667.

RRIRFRPPRLPRPRPRPSARPRP: the “shrunken log2 fold change” value amounted to 0.0874.

As to RRIRPRPPRLPRPRPRPFPPPRP, the “shrunken log2 fold change” value was -0.0227.

For RRIRHRPPRLPRPRPRPIYNPRP, the “shrunken log2 fold change” value is -0.898.

Turning to RRIRWRPPRLPRPRPRPFIRPRP, the “shrunken log2 fold change” value came out at 0.0247.

With RRIRTRPPRLPRPRPRPNFIPRP, the “shrunken log2 fold change” value is -0.457.

As for RRIRQRPPRLPRPRPRPFASPRP, the “shrunken log2 fold change” value is -0.35.

Take RRIRQRPPRLPRPRPRPCWSPRP: the “shrunken log2 fold change” value was -0.08.

RRIRQRPPRLPRPRPRPDPGPRP: the “shrunken log2 fold change” value was -0.00151.

Regarding RRIRHRPPRLPRPRPRPCPDPRP, the “shrunken log2 fold change” value was 0.0299.

With RRIRMRPPRLPRPRPRPPELPRP, the “shrunken log2 fold change” value amounted to 0.372.

For the sequence RRIRNRPPRLPRPRPRPRYHPRP, the “shrunken log2 fold change” value is -0.438.

Regarding RRIRPRPPRLPRPRPRPQCFPRP, the “shrunken log2 fold change” value worked out at 0.185.

On to RRIRWRPPRLPRPRPRPENWPRP, for which the “shrunken log2 fold change” value was 0.254.

RRIRCRPPRLPRPRPRPTPSPRP: the “shrunken log2 fold change” value was determined as 0.736.

Regarding RRIRTRPPRLPRPRPRPQRLPRP, the “shrunken log2 fold change” value is -0.223.

Turning to RRIRERPPRLPRPRPRPSKWPRP, the “shrunken log2 fold change” value is -0.241.

For the sequence RRIRCRPPRLPRPRPRPTHRPRP, the “shrunken log2 fold change” value was determined as 0.426.

With RRIRKRPPRLPRPRPRPEWAPRP, the “shrunken log2 fold change” value was 0.604.

For the sequence RRIRQRPPRLPRPRPRPALNPRP, the “shrunken log2 fold change” value was -0.0345.

With RRIRTRPPRLPRPRPRPFMPPRP, the “shrunken log2 fold change” value was -0.618.

On to RRIRKRPPRLPRPRPRPSDCPRP, for which the “shrunken log2 fold change” value is -0.00471.

In the case of RRIRQRPPRLPRPRPRPGREPRP, the “shrunken log2 fold change” value is 0.221.

Consider RRIRQRPPRLPRPRPRPHQNPRP, for which the “shrunken log2 fold change” value was -0.246.

For RRIRCRPPRLPRPRPRPYTAPRP, the “shrunken log2 fold change” value was -0.595.

On to RRIRTRPPRLPRPRPRPLGWPRP, for which the “shrunken log2 fold change” value is 0.811.

As for RRIRFRPPRLPRPRPRPQILPRP, the “shrunken log2 fold change” value was -0.713.

Consider RRIRPRPPRLPRPRPRPWHKPRP, for which the “shrunken log2 fold change” value was -0.29.

RRIRSRPPRLPRPRPRPVYQPRP: the “shrunken log2 fold change” value is -1.16.

Turning to RRIRSRPPRLPRPRPRPKQIPRP, the “shrunken log2 fold change” value turned out to be 0.0712.

For RRIRYRPPRLPRPRPRPDPRPRP, the “shrunken log2 fold change” value is -0.0317.

Regarding RRIRFRPPRLPRPRPRPIDLPRP, the “shrunken log2 fold change” value was -0.164.

Turning to RRIRLRPPRLPRPRPRPKHDPRP, the “shrunken log2 fold change” value was -0.0476.

For the sequence RRIRIRPPRLPRPRPRPCAMPRP, the “shrunken log2 fold change” value is -0.424.

RRIRTRPPRLPRPRPRPCIKPRP: the “shrunken log2 fold change” value was -0.476.

With RRIRRRPPRLPRPRPRPHECPRP, the “shrunken log2 fold change” value turned out to be 0.0921.

Regarding RRIRSRPPRLPRPRPRPQKTPRP, the “shrunken log2 fold change” value came out at 0.0161.

On to RRIRARPPRLPRPRPRPCYGPRP, for which the “shrunken log2 fold change” value is -0.246.

In the case of RRIRQRPPRLPRPRPRPVGTPRP, the “shrunken log2 fold change” value was -0.0913.

For the sequence RRIRDRPPRLPRPRPRPLPQPRP, the “shrunken log2 fold change” value is 0.282.

In the case of RRIRIRPPRLPRPRPRPYIHPRP, the “shrunken log2 fold change” value is -1.3.

With RRIRMRPPRLPRPRPRPIYSPRP, the “shrunken log2 fold change” value is -0.0833.

For RRIRHRPPRLPRPRPRPDQSPRP, the “shrunken log2 fold change” value was -0.016.

In the case of RRIRGRPPRLPRPRPRPEIAPRP, the “shrunken log2 fold change” value was determined as 1.86.

Consider RRIRDRPPRLPRPRPRPWTRPRP, for which the “shrunken log2 fold change” value is -0.231.

On to RRIRKRPPRLPRPRPRPFETPRP, for which the “shrunken log2 fold change” value was 0.163.

As for RRIRHRPPRLPRPRPRPQQNPRP, the “shrunken log2 fold change” value is -0.0705.

On to RRIRTRPPRLPRPRPRPDHTPRP, for which the “shrunken log2 fold change” value was -0.145.

On to RRIRVRPPRLPRPRPRPFCKPRP, for which the “shrunken log2 fold change” value was -0.144.

For RRIRHRPPRLPRPRPRPVKWPRP, the “shrunken log2 fold change” value came out at 0.421.

Turning to RRIRMRPPRLPRPRPRPCIAPRP, the “shrunken log2 fold change” value came out at 0.099.

RRIRRRPPRLPRPRPRPSMSPRP: the “shrunken log2 fold change” value came out at 0.0591.

Regarding RRIRIRPPRLPRPRPRPYLCPRP, the “shrunken log2 fold change” value is -0.0937.

In the case of RRIRSRPPRLPRPRPRPHDFPRP, the “shrunken log2 fold change” value is -0.0847.

RRIRYRPPRLPRPRPRPMPDPRP: the “shrunken log2 fold change” value was -0.204.

With RRIRKRPPRLPRPRPRPKLGPRP, the “shrunken log2 fold change” value came to 0.0679.

Turning to RRIRKRPPRLPRPRPRPDMVPRP, the “shrunken log2 fold change” value is -0.00254.

For RRIRVRPPRLPRPRPRPMDAPRP, the “shrunken log2 fold change” value was 0.0377.

As for RRIRYRPPRLPRPRPRPDYWPRP, the “shrunken log2 fold change” value is -0.134.

Take RRIRVRPPRLPRPRPRPLYEPRP: the “shrunken log2 fold change” value is -0.168.

Consider RRIRLRPPRLPRPRPRPWPFPRP, for which the “shrunken log2 fold change” value was -0.0764.

In the case of RRIRHRPPRLPRPRPRPHPFPRP, the “shrunken log2 fold change” value is -0.3.

For RRIRSRPPRLPRPRPRPWQKPRP, the “shrunken log2 fold change” value was 0.14.

With RRIRRRPPRLPRPRPRPCFTPRP, the “shrunken log2 fold change” value is -0.156.

Take RRIRQRPPRLPRPRPRPIYDPRP: the “shrunken log2 fold change” value was -0.213.

In the case of RRIRNRPPRLPRPRPRPSECPRP, the “shrunken log2 fold change” value is -0.272.

With RRIRLRPPRLPRPRPRPVPGPRP, the “shrunken log2 fold change” value is 0.113.

Regarding RRIRMRPPRLPRPRPRPESLPRP, the “shrunken log2 fold change” value was 1.69.

Regarding RRIRARPPRLPRPRPRPDNGPRP, the “shrunken log2 fold change” value is -0.19.

In the case of RRIRHRPPRLPRPRPRPGVQPRP, the “shrunken log2 fold change” value was found to be 0.00489.

With RRIRHRPPRLPRPRPRPHDIPRP, the “shrunken log2 fold change” value came out at 0.0564.

In the case of RRIRDRPPRLPRPRPRPVENPRP, the “shrunken log2 fold change” value is -0.127.

With RRIRSRPPRLPRPRPRPHNYPRP, the “shrunken log2 fold change” value was -0.372.

Regarding RRIRERPPRLPRPRPRPANLPRP, the “shrunken log2 fold change” value is -0.254.

Turning to RRIRVRPPRLPRPRPRPISYPRP, the “shrunken log2 fold change” value is -0.158.

As to RRIRIRPPRLPRPRPRPGRAPRP, the “shrunken log2 fold change” value amounted to 0.431.

As for RRIRPRPPRLPRPRPRPKFPPRP, the “shrunken log2 fold change” value came to 0.119.

Consider RRIRHRPPRLPRPRPRPNVCPRP, for which the “shrunken log2 fold change” value is -0.0562.

In the case of RRIRFRPPRLPRPRPRPCWDPRP, the “shrunken log2 fold change” value was -0.0535.

With RRIRERPPRLPRPRPRPIQMPRP, the “shrunken log2 fold change” value is -0.14.

Take RRIRRRPPRLPRPRPRPVTLPRP: the “shrunken log2 fold change” value was determined as 0.0854.

With RRIRCRPPRLPRPRPRPEKPPRP, the “shrunken log2 fold change” value came to 0.118.

For RRIRARPPRLPRPRPRPDVTPRP, the “shrunken log2 fold change” value was found to be 0.533.

Turning to RRIRFRPPRLPRPRPRPFLQPRP, the “shrunken log2 fold change” value is -0.408.

In the case of RRIRTRPPRLPRPRPRPSKIPRP, the “shrunken log2 fold change” value is -0.24.

Regarding RRIRQRPPRLPRPRPRPVGNPRP, the “shrunken log2 fold change” value was -0.108.

For RRIRERPPRLPRPRPRPRWLPRP, the “shrunken log2 fold change” value is 0.108.

On to RRIRDRPPRLPRPRPRPQFCPRP, for which the “shrunken log2 fold change” value is -0.137.

With RRIRDRPPRLPRPRPRPRFHPRP, the “shrunken log2 fold change” value was -0.239.

Regarding RRIRERPPRLPRPRPRPKDPPRP, the “shrunken log2 fold change” value worked out at 0.0145.

Regarding RRIRTRPPRLPRPRPRPVHRPRP, the “shrunken log2 fold change” value was -0.0993.

For the sequence RRIRCRPPRLPRPRPRPVQYPRP, the “shrunken log2 fold change” value is -0.203.

As for RRIRPRPPRLPRPRPRPSVNPRP, the “shrunken log2 fold change” value was -0.44.

RRIRLRPPRLPRPRPRPFCTPRP: the “shrunken log2 fold change” value is -0.105.

Take RRIRTRPPRLPRPRPRPYKFPRP: the “shrunken log2 fold change” value amounted to 0.00477.

On to RRIRLRPPRLPRPRPRPYYQPRP, for which the “shrunken log2 fold change” value was -0.0534.

In the case of RRIRNRPPRLPRPRPRPMNFPRP, the “shrunken log2 fold change” value was -0.0203.

As to RRIRQRPPRLPRPRPRPQTCPRP, the “shrunken log2 fold change” value worked out at 0.0348.

As to RRIRWRPPRLPRPRPRPAVMPRP, the “shrunken log2 fold change” value was 0.0971.

For the sequence RRIRFRPPRLPRPRPRPGQKPRP, the “shrunken log2 fold change” value was -0.0331.

Regarding RRIRGRPPRLPRPRPRPFYEPRP, the “shrunken log2 fold change” value came to 0.0153.

With RRIRKRPPRLPRPRPRPVNMPRP, the “shrunken log2 fold change” value was determined as 0.113.

Take RRIRIRPPRLPRPRPRPVMFPRP: the “shrunken log2 fold change” value was -0.255.

On to RRIRHRPPRLPRPRPRPREDPRP, for which the “shrunken log2 fold change” value is -0.0018.

With RRIRNRPPRLPRPRPRPQGKPRP, the “shrunken log2 fold change” value stood at 0.0697.

On to RRIRCRPPRLPRPRPRPGPVPRP, for which the “shrunken log2 fold change” value came out at 0.239.

RRIRDRPPRLPRPRPRPRGAPRP: the “shrunken log2 fold change” value was determined as 0.772.

For the sequence RRIRQRPPRLPRPRPRPTWLPRP, the “shrunken log2 fold change” value was 0.295.

Turning to RRIRHRPPRLPRPRPRPRRVPRP, the “shrunken log2 fold change” value was 0.36.

Regarding RRIRKRPPRLPRPRPRPNVTPRP, the “shrunken log2 fold change” value was determined as 0.138.

For the sequence RRIRWRPPRLPRPRPRPWIFPRP, the “shrunken log2 fold change” value was -0.679.

Turning to RRIRHRPPRLPRPRPRPPRKPRP, the “shrunken log2 fold change” value was -0.0559.

For the sequence RRIRRRPPRLPRPRPRPPSPPRP, the “shrunken log2 fold change” value came out at 0.875.

In the case of RRIRSRPPRLPRPRPRPSWWPRP, the “shrunken log2 fold change” value came to 0.0841.

As for RRIRARPPRLPRPRPRPETWPRP, the “shrunken log2 fold change” value came to 0.369.

As to RRIRFRPPRLPRPRPRPGPDPRP, the “shrunken log2 fold change” value was found to be 0.325.
